Data from article PMC9736779, “Properties and Potential Antiproliferative Activity of Thrombin-Binding Aptamer (TBA) Derivatives with One or Two Additional G-Tetrads”.

Target: nucleolin (NCL) (Homo sapiens, UniProt P19338 1-710)
Test: SPR; 70 mM KCl; SPR (Biacore X-100, CM5): 10 mM HEPES, 70 mM KCl, pH 7.4, 25 C; analyte 5-500 uM; two-state reaction fit
Details: protein: commercial

nucleolin (NCL), sequence (P19338 whole entry): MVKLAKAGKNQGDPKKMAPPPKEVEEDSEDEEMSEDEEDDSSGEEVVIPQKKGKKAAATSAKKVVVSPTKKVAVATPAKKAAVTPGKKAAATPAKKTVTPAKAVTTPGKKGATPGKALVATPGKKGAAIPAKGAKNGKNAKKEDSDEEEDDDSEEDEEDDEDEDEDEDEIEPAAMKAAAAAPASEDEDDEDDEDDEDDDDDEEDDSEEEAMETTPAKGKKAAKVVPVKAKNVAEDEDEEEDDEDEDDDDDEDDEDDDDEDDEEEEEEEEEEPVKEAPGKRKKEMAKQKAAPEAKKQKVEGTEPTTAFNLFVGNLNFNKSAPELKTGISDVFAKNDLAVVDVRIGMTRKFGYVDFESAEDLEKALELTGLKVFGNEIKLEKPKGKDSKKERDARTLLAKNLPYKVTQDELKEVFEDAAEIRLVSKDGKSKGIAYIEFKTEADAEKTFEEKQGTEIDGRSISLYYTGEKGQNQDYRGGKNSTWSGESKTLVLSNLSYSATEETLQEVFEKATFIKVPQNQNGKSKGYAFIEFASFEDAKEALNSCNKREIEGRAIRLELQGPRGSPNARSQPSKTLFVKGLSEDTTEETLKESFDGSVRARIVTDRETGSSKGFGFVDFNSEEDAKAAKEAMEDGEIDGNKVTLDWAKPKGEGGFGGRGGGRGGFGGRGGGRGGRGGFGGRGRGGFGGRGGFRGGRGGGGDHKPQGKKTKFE

Binder GGTTGGTGTGGTTGG (structured_DNA) [TBA] has a Kd (antiparallel G4, intramolecular) of 62.5 µM.

GGGTTGGGTGTGGGTTGGG (structured_DNA) [TBAG3] gave a Kd (G4, one extra G-tetrad, intramolecular) of 1290 µM.

Work on GGGGTTGGGGTGTGGGGTTGGGG (structured_DNA) [TBAG4] yielded a Kd (antiparallel G4, two extra G-tetrads, intramolecular) of 13.5 µM.
